Experimental data from patent US20220396635A1 (UNIVERSIT T STUTTGART, published 2022).

B1: scDb/scFv-Fc (1-1)+2, trivalent bispecific anti-FAPxanti-CD3 (bispecific antibody)
chain 1: QVQLVQSGAEVKKPGASVKVSCKASGYTFTENIIHWVRQAPGQGLEWMGWFHPGSGSIKYNEKFKDRVTMTADTSTSTVYMELSSLRSEDTAVYYCARHGGTGRGAMDYWGQGTLVTVSSGGGGSDIQMTQSPSSLSASVGDRVTITCRASKSVSTSAYSYMHWYQQKPGKAPKLLIYLASNLESGVPSRFSGSGSGTDFTLTISSLQPEDFATYYCQHSRELPYTFGQGTKLEIKRGGGGSGGGGSQVQLVQSGAEVKKPGASVKVSCKASGYTFTENIIHWVRQAPGQGLEWMGWFHPGSGSIKYNEKFKDRVTMTADTSTSTVYMELSSLRSEDTAVYYCARHGGTGRGAMDYWGQGTLVTVGGGGSDIQMTQSPSSLSASVGDRVTITCRASKSVSTSAYSYMHWYQQKPGKAPKLLIYLASNLESGVPSRFSGSGSGTDFTLTISSLQPEDFATYYCQHSRELPYTFGQGTKLEIKRAAADKTHTCPPCPAPPVAGPSVFLFPPKPKDTLMISRTPEVTCVVVDVSHEDPEVKFNWYVDGVEVHNAKTKPREEQYNSTYRVVSVLTVLHQDWLNGKEYKCKVSNKGLPSSIEKTISKAKGQPREPQVCTLPPSRDELTKNQVSLSCAVKGFYPSDIAVEWESNGQPENNYKTTPPVLDSDGSFFLVSKLTVDKSRWQQGNVFSCSVMHEALHNHYTQKSLSLSPGK
chain 2: DIQMTQSPSSLSASVGDRVTITCRASQDIRNYLNWYQQKPGKAPKLLIYYTSRLHSGVPSRFSGSGSGTDFTFTISSLQPEDIATYYCQQGNTLPWTFGQGTKLEIKRGGGGSGGGGSGGGGSQVQLVQSGAEVKKPGSSVKVSCKASGGTFSGYTMNWVRQAPGQGLEWMGLINPYKGVSTYNGKFKDRVTITADKSTSTAYMELSSLRSEDTAVYYCARSGYYGDSDWYFDVWGQGTLVTVSSAAADKTHTCPPCPAPPVAGPSVFLFPPKPKDTLMISRTPEVTCVVVDVSHEDPEVKFNWYVDGVEVHNAKTKPREEQYNSTYRVVSVLTVLHQDWLNGKEYKCKVSNKGLPSSIEKTISKAKGQPREPQVYTLPPCRDELTKNQVSLWCLVKGFYPSDIAVEWESNGQPENNYKTTPPVLDSDGSFFLYSKLTVDKSRWQQGNVFSCSVMHEALHNHYTQKSLSLSPGK
notes: also called scDbFAPxFAP-Fc(hole)Δab + scFvhuU3-Fc(knob)Δab
B2: scDb/scFv-Fc (1-2)+1, trivalent bispecific anti-CEAxanti-CD3 (bispecific antibody)
chain 1: QVKLQQSGAELVRSGTSVKLSCTASGFNIKDSYMHWLRQGPEQGLEWIGWIDPENGDTEYAPKFQGKATFTTDTSSNTAYLQLSSLTSEDTAVYYCNEGTPTGPYYFDYWGQGTTVTVSSGGGGSDIQMTQSPSSLSASVGDRVTITCRASQDIRNYLNWYQQKPGKAPKLLIYYTSRLHSGVPSRFSGSGSGTDFTFTISSLQPEDIATYYCQQGNTLPWTFGQGTKLEIKRGGGGSGGGGSGGGGSQVQLVQSGAEVKKPGSSVKVSCKASGGTFSGYTMNWVRQAPGQGLEWMGLINPYKGVSTYNGKFKDRVTITADKSTSTAYMELSSLRSEDTAVYYCARSGYYGDSDWYFDVWGQGTLVTVSSGGGGSDIELTQSPAIMSASPGEKVTITCSASSSVSYMHWFQQKPGTSPKLWIYSTSNLASGVPARFSGSGSGTSYSLTISRMEAEDAATYYCQQRSSYPLTFGAGTKLELKRAAADKTHTCPPCPAPPVAGPSVFLFPPKPKDTLMISRTPEVTCVVVDVSHEDPEVKFNWYVDGVEVHNAKTKPREEQYNSTYRVVSVLTVLHQDWLNGKEYKCKVSNKGLPSSIEKTISKAKGQPREPQVCTLPPSRDELTKNQVSLSCAVKGFYPSDIAVEWESNGQPENNYKTTPPVLDSDGSFFLVSKLTVDKSRWQQGNVFSCSVMHEALHNHYTQKSLSLSPGK
chain 2: QVKLQQSGAELVRSGTSVKLSCTASGFNIKDSYMHWLRQGPEQGLEWIGWIDPENGDTEYAPKFQGKATFTTDTSSNTAYLQLSSLTSEDTAVYYCNEGTPTGPYYFDYWGQGTTVTVSSGGGGSGGGGSGGGGSDIELTQSPAIMSASPGEKVTITCSASSSVSYMHWFQQKPGTSPKLWIYSTSNLASGVPARFSGSGSGTSYSLTISRMEAEDAATYYCQQRSSYPLTFGAGTKLELKRAAADKTHTCPPCPAPPVAGPSVFLFPPKPKDTLMISRTPEVTCVVVDVSHEDPEVKFNWYVDGVEVHNAKTKPREEQYNSTYRVVSVLTVLHQDWLNGKEYKCKVSNKGLPSSIEKTISKAKGQPREPQVYTLPPCRDELTKNQVSLWCLVKGFYPSDIAVEWESNGQPENNYKTTPPVLDSDGSFFLYSKLTVDKSRWQQGNVFSCSVMHEALHNHYTQKSLSLSPGK
notes: also called scDbCEAxhuU3-Fc(hole)Δab + scFvCEA-Fc(knob)Δab
B3: scDb/Fab-Fc (1-2)+1, trivalent bispecific anti-CEAxanti-CD3 (bispecific antibody, human IgG1, kappa)
chain: B2 chain 1
heavy: QVKLQQSGAELVRSGTSVKLSCTASGFNIKDSYMHWLRQGPEQGLEWIGWIDPENGDTEYAPKFQGKATFTTDTSSNTAYLQLSSLTSEDTAVYYCNEGTPTGPYYFDYWGQGTTVTVSSASTKGPSVFPLAPSSKSTSGGTAALGCLVKDYFPEPVTVSWNSGALTSGVHTFPAVLQSSGLYSLSSVVTVPSSSLGTQTYICNVNHKPSNTKVDKKVEPKSCDKTHTCPPCPAPPVAGPSVFLFPPKPKDTLMISRTPEVTCVVVDVSHEDPEVKFNWYVDGVEVHNAKTKPREEQYNSTYRVVSVLTVLHQDWLNGKEYKCKVSNKGLPSSIEKTISKAKGQPREPQVYTLPPCRDELTKNQVSLWCLVKGFYPSDIAVEWESNGQPENNYKTTPPVLDSDGSFFLYSKLTVDKSRWQQGNVFSCSVMHEALHNHYTQKSLSLSPGK
light: DIELTQSPAIMSASPGEKVTITCSASSSVSYMHWFQQKPGTSPKLWIYSTSNLASGVPARFSGSGSGTSYSLTISRMEAEDAATYYCQQRSSYPLTFGAGTKLELKRRTVAAPSVFIFPPSDEQLKSGTASVVCLLNNFYPREAKVQWKVDNALQSGNSQESVTEQDSKDSTYSLSSTLTLSKADYEKHKVYACEVTHQGLSSPVTKSFNRGEC
notes: also called scDbCEAxhuU3-Fc(hole)Δab + VHCEA-CH1-Fc(knob)Δab + VLCEA-CLκ
B4: scDb/scFv-Fc (2-1)+1, trivalent bispecific anti-CEAxanti-CD3 (bispecific antibody)
chain 1: QVQLVQSGAEVKKPGSSVKVSCKASGGTFSGYTMNWVRQAPGQGLEWMGLINPYKGVSTYNGKFKDRVTITADKSTSTAYMELSSLRSEDTAVYYCARSGYYGDSDWYFDVWGQGTLVTVSSGGGGSDIELTQSPAIMSASPGEKVTITCSASSSVSYMHWFQQKPGTSPKLWIYSTSNLASGVPARFSGSGSGTSYSLTISRMEAEDAATYYCQQRSSYPLTFGAGTKLELKRGGGGSGGGGSGGGGSQVKLQQSGAELVRSGTSVKLSCTASGFNIKDSYMHWLRQGPEQGLEWIGWIDPENGDTEYAPKFQGKATFTTDTSSNTAYLQLSSLTSEDTAVYYCNEGTPTGPYYFDYWGQGTTVTVSSGGGGSDIQMTQSPSSLSASVGDRVTITCRASQDIRNYLNWYQQKPGKAPKLLIYYTSRLHSGVPSRFSGSGSGTDFTFTISSLQPEDIATYYCQQGNTLPWTFGQGTKLEIKRAAADKTHTCPPCPAPPVAGPSVFLFPPKPKDTLMISRTPEVTCVVVDVSHEDPEVKFNWYVDGVEVHNAKTKPREEQYNSTYRVVSVLTVLHQDWLNGKEYKCKVSNKGLPSSIEKTISKAKGQPREPQVCTLPPSRDELTKNQVSLSCAVKGFYPSDIAVEWESNGQPENNYKTTPPVLDSDGSFFLVSKLTVDKSRWQQGNVFSCSVMHEALHNHYTQKSLSLSPGK
chain 2: B2 chain 2
notes: also called scDbhuU3xCEA-Fc(hole)Δab + scFvCEA-Fc(knob)Δab

Tests used:
FAP = biological target: T1, FAP (UniProt Q12884 1-760, limits assumed); test: flow cytometry, serial dilution on HT1080-FAP cells (FAP-expressing), PE anti-human Fc detection
T1 construct: whole, on cells; also called FAP on HT1080-FAP cells
Method: (§1) Binding of trivalent, bispecific fusion proteins to FAP-expressing (HT1080-FAP) cell lines was analyzed by flow cytometry. 2×10⁵ cells/well were incubated with a serial dilution of trivalent, bispecific antibodies for 1 h at 4° C. followed by detection using a PE-conjugated anti-human Fc antibody (Jackson ImmunoResearch Laboratories Inc).

CEA [1] = biological target: T2, CEA (UniProt P06731 35-685); test: cell-based or functional assay
T2 sequence (looked up): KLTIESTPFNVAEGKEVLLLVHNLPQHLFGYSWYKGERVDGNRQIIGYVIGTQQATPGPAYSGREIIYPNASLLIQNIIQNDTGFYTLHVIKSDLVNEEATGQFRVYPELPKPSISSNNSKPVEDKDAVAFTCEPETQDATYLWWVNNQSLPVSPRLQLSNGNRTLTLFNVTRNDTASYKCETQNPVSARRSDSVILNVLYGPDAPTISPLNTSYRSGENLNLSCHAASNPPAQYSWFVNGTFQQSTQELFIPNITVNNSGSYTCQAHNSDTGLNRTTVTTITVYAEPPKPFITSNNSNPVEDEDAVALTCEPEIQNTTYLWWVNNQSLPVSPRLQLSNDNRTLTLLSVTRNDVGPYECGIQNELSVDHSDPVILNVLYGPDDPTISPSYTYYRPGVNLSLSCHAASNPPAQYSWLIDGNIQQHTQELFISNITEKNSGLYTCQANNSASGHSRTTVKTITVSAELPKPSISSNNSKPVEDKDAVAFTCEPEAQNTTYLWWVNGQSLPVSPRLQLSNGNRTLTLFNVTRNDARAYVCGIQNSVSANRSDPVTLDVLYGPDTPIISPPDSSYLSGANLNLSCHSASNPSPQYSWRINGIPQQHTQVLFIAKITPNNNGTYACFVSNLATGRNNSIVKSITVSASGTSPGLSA

CEA [2] = biological target: T2, CEA; test: cell-based or functional assay; remark: listed apart in the source
CD3 = biological target: T3, CD3 (UniProt P07766 23-207); test: flow cytometry, serial dilution on Jurkat cells (CD3-expressing), PE anti-human Fc detection
T3 construct: whole, on cells; on cells it stands in the TCR/CD3 complex; also called CD3 on Jurkat cells
Method: as §1, with “CEA-expressing (LIM1215) and CD3-expressing (Jurkat)” for “FAP-expressing (HT1080-FAP)”, “Inc). […] Regarding the CEA-expressing cell line LIM1215, the trivalent, bispecific antibodies bound with EC₅₀ values in the nanomolar range (FIG. 16A) (Table 9).” for “Inc).”

CEA [3] = biological target: T2, CEA; test: flow cytometry, serial dilution on LIM1215 cells (CEA-expressing), PE anti-human Fc detection
Method: as §1, with “CEA-expressing (LIM1215) and CD3-expressing (Jurkat)” for “FAP-expressing (HT1080-FAP)”, “Inc). […] Regarding the CEA-expressing cell line LIM1215, the trivalent, bispecific antibodies bound with EC₅₀ values in the nanomolar range (FIG. 16A) (Table 9).” for “Inc).”

Row | Binder | EC50 (FAP) [nM] | EC50 of PBMC cytotoxicity on LIM1215 cells, E:T 10:1 (CEA [1]) [nM] | EC50 of IL-2 release, PBMCs co-cultured with LIM1215 cells (CEA [2]) [nM] | EC50 (CD3) [nM] | EC50 (CEA [3]) [nM]
1 | B1 | 1 | – | – | – | –
2 | B2 | – | 0.5 | 1.4 | 7.7 | 1.6
3 | B3 | – | 0.4 | 0.5 | 5.7 | 2.5
4 | B4 | – | 0.3 | 1.4 | 7.9 | 1.7
